Reference: publication PMC10699790

Target: HA-Halo-mGluR3 (rat), P31422
Experiment: single-molecule pulldown
Settings: remark: other sources report otherwise

B1: HA-Halo-mGluR3, P31422 23-879 (receptor)
chain: LGDHNFMRREIKIEGDLVLGGLFPINEKGTGTEECGRINEDRGIQRLEAMLFAIDEINKDNYLLPGVKLGVHILDTCSRDTYALEQSLEFVRASLTKVDEAEYMCPDGSYAIQENIPLLIAGVIGGSYSSVSIQVANLLRLFQIPQISYASTSAKLSDKSRYDYFARTVPPDFYQAKAMAEILRFFNWTYVSTVASEGDYGETGIEAFEQEARLRNICIATAEKVGRSNIRKSYDSVIRELLQKPNARVVVLFMRSDDSRELIAAANRVNASFTWVASDGWGAQESIVKGSEHVAYGAITLELASHPVRQFDRYFQSLNPYNNHRNPWFRDFWEQKFQCSLQNKRNHRQVCDKHLAIDSSNYEQESKIMFVVNAVYAMAHALHKMQRTLCPNTTKLCDAMKILDGKKLYKEYLLKINFTAPFNPNKGADSIVKFDTFGDGMGRYNVFNLQQTGGKYSYLKVGHWAETLSLDVDSIHWSRNSVPTSQCSDPCAPNEMKNMQPGDVCCWICIPCEPYEYLVDEFTCMDCGPGQWPTADLSGCYNLPEDYIKWEDAWAIGPVTIACLGFLCTCIVITVFIKHNNTPLVKASGRELCYILLFGVSLSYCMTFFFIAKPSPVICALRRLGLGTSFAICYSALLTKTNCIARIFDGVKNGAQRPKFISPSSQVFICLGLILVQIVMVSVWLILETPGTRRYTLPEKRETVILKCNVKDSSMLISLTYDVVLVILCTVYAFKTRKCPENFNEAKFIGFTMYTTCIIWLAFLPIFYVTSSDYRVQTTTMCISVSLSGFVVLGCLFAPKVHIVLFQPQKNVVTHRLHLNRFSVSGTATTYSQSSASTYVPTVCNGREVLDSTTSSL
modifications: here or on the partner: Halo tag labeled with CA-SS-Alexa-488; Halo tag labeled with CA-SS-Alexa-488
  stoichiometry N: 2
